Data published in the supplement of paper PMC6757056.
± gives the standard deviation of the averaged measurements.

B1: library; a variant is named by its letters at N, in order (parent)
chain: GCUGUCACCGGUGUAUUACCCUAGUGGUCGACCGGUCUGAUGAGUCUNNNNNNAGACGAAACAGC

Legend:
[1] = variants of: B1; experiment: FACS-Seq fitted mean relative fluorescence mCherry/BFP without ligand (log10 relative fluorescence); ligand: hypoxanthine (xanthine aptamer); higher = higher reporter protein expression; conditions: HEK293T, ligand present: no
In short: (§1)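 An mCherry reporter containing the ribozyme switch and an EF1α-BFP marker were introduced by lentivirus into HEK293T libraries. Cells were enriched, incubated 48 h with or without ligand, sorted into 6 bins by mCherry/BFP, and bin genomic DNA was PCR-amplified, barcoded and sequenced on MiSeq. Fluorescence represents the normalized fitted normal mean of the bin counts. Fitting was done on log10(mCherry/BFP), scaling to five spiked-in control ribozymes.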

[2] = variants of: B1; experiment: normalized RNA/DNA level with ligand (relative to sTRSVctl = 100) (log10 (% of sTRSVctl)); ligand: hypoxanthine (xanthine aptamer); higher = less ribozyme self-cleavage, higher mRNA level; conditions: ligand concentration (+) RNA-Seq: 5 mM, HEK293T, reporter: mCherry (pCS4076), ligand present: yes
In short: (§2)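 Only sequences with at least 100 DNA reads were analyzed, from HEK293T cells transfected with 4 µg per 6-well well of ribozyme switch library plasmids 72 h before RNA extraction with EDTA. Any ligand was added 1 h before transfection. RNA level was defined as RNA over DNA reads, normalized to a spiked-in non-cleaving sequence or to the top sequences, then scaled and log-transformed. The top set was 25 sequences, and the scaling was ×100 followed by log10.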

[3] = variants of: B1; experiment: normalized RNA/DNA level without ligand (relative to sTRSVctl = 100) (log10 (% of sTRSVctl)); ligand: hypoxanthine (xanthine aptamer); higher = less ribozyme self-cleavage, higher mRNA level; conditions: HEK293T, reporter: mCherry (pCS4076), ligand present: no
In short: as §2

[4] = variants of: B1; experiment: FACS-Seq fitted mean relative fluorescence mCherry/BFP with ligand (log10 relative fluorescence); ligand: hypoxanthine (xanthine aptamer); ligand concentration (+) FACS-Seq: 5 mM; higher = higher reporter protein expression; conditions: HEK293T, ligand present: yes
In short: as §1

Variant	FACS-Seq fitted mean (log10) [1]	normalized RNA/DNA level with ligand (log10) [2]	normalized RNA/DNA level without ligand (log10) [3]	FACS-Seq fitted mean (log10) [4]
AGAUAC	0.757 ± 0.025	1.91 ± 0.052	1.74 ± 0.029	0.699 ± 0.065
AGGGGG	0.363 ± 0.12	1.88 ± 0.034	1.53 ± 0.07	0.631 ± 0.028
UACCCC	0.5672 ± 0.0022	1.95 ± 0.062	1.9 ± 0.064	0.523 ± 0.047
GAAAGU	0.233 ± 0.011	1.91 ± 0.022	1.752 ± 0.0063	0.17 ± 0.018
GAAAUA	0.105 ± 0.023	1.92 ± 0.055	1.85 ± 0.028	0.082 ± 0.037
AGGGUU	0.328 ± 0.006	1.97 ± 0.027	1.9 ± 0.029	0.0205 ± 0.029
UCUAAG	0.59 ± 0.091	1.9502 ± 0.0012	1.7 ± 0.088	0.678 ± 0.094
GGGUAA	0.396 ± 0.048	1.884 ± 0.0098	1.71 ± 0.045	0.6223 ± 0.0027
GGGUAC	0.1586 ± 0.00038	1.93 ± 0.06	1.68 ± 0.037	0.529 ± 0.049
UCGCGU	0.334 ± 0.04	1.9 ± 0.026	1.56 ± 0.048	0.509 ± 0.016
GCGAUC	0.2339 ± 0.00091	1.87 ± 0.041	1.46 ± 0.038	0.601 ± 0.025
UUGAAG	0.35 ± 0.06	1.93 ± 0.077	1.64 ± 0.059	0.6894 ± 0.0024
CAAAAG	0.0525 ± 0.066	1.87 ± 0.026	1.59 ± 0.038	0.174 ± 0.031
UAAAGC	0.687 ± 0.044	1.92 ± 0.024	1.799 ± 0.0067	0.694 ± 0.029
UAAAGU	0.334 ± 0.017	1.89 ± 0.05	1.54 ± 0.076	0.708 ± 0.063
UAGGUC	0.588 ± 0.034	1.978 ± 0.0051	1.95 ± 0.054	0.577 ± 0.036
UAGAAA	0.355 ± 0.024	1.88 ± 0.052	1.702 ± 0.013	0.469 ± 0.053
AUUGAU	0.686 ± 0.037	1.92 ± 0.07	1.73 ± 0.074	0.657 ± 0.014

Variant	FACS-Seq fitted mean (log10) [1]	normalized RNA/DNA level with ligand (log10) [2]	normalized RNA/DNA level without ligand (log10) [3]	FACS-Seq fitted mean (log10) [4]
UGAUUC	0.59 ± 0.061	1.993 ± 0.0057	1.977 ± 0.011	0.627 ± 0.06
GUAAGC	0.302 ± 0.007	1.886 ± 0.015	1.53 ± 0.023	0.667 ± 0.078
CGACGG	0.267 ± 0.083	1.83 ± 0.035	1.413 ± 0.0057	0.596 ± 0.078
CGAUUU	0.4582 ± 0.0022	1.92 ± 0.089	1.847 ± 0.012	0.5218 ± 0.0046
CGAUUC	0.279 ± 0.048	1.976 ± 0.0063	1.89 ± 0.02	0.313 ± 0.0095
GGGAUG	0.0328 ± 0.0034	1.79 ± 0.043	1.323 ± 0.0058	0.564 ± 0.02
AGAAAU	0.552 ± 0.024	1.93 ± 0.036	1.83 ± 0.034	0.414 ± 0.021
GUUGAU	0.224 ± 0.074	1.936 ± 0.015	1.79 ± 0.021	0.303 ± 0.031
GCGGUA	0.439 ± 0.019	1.943 ± 0.0021	1.68 ± 0.036	0.677 ± 0.034
GCCCUU	0.019 ± 0.061	1.95 ± 0.065	1.92 ± 0.058	0.231 ± 0.0079
AAGCGU	0.27 ± 0.0081	1.89 ± 0.05	1.62 ± 0.035	0.579 ± 0.013
AGGCCA	0.668 ± 0.014	1.96 ± 0.016	1.86 ± 0.023	0.607 ± 0.064
GAAUGC	0.275 ± 0.016	1.863 ± 0.014	1.53 ± 0.03	0.577 ± 0.011
GAAUGA	0.481 ± 0.081	1.922 ± 0.0024	1.66 ± 0.057	0.688 ± 0.028
UACCAA	-0.105 ± 0.11	1.92 ± 0.036	1.838 ± 0.011	-0.235 ± 0.035
GCAACA	-0.108 ± 0.043	1.96 ± 0.027	1.85 ± 0.059	-0.0215 ± 0.13
AUGUGU	-0.337 ± 0.023	1.86 ± 0.02	1.53 ± 0.059	0.155 ± 0.022
AUGUGA	0.242 ± 0.018	1.849 ± 0.0086	1.56 ± 0.1	0.68 ± 0.028
